Laboratory results from paper PMC4874835 (Nature, 2016).

Key:
[1] = target: cMCU-ΔNTD (C. elegans MCU residues 167-316, N-terminal domain deleted) (C. elegans) (UniProt Q21121); assay: SEC-MALS
[2] = target: cMCU-ΔNTD (C. elegans MCU residues 167-316, N-terminal domain deleted) (C. elegans) (UniProt Q21121); assay: negative stain EM
[3] = target: cMCU-ΔNTD (C. elegans MCU residues 167-316, N-terminal domain deleted) (C. elegans) (UniProt Q21121); assay: cross-linking
[4] = target: the molecule itself; assay: cross-linking

| stoichiometry N [1] | stoichiometry N [2] | stoichiometry N [3] | Molecule | stoichiometry N [4] |
| --- | --- | --- | --- | --- |
| 5 | 5 | 5 | cMCU-ΔNTD (C. elegans MCU residues 167-316, N-terminal domain deleted) (from UniProt Q21121 167-316) (domain or fragment) | – |
| – | – | – | KQNFDIEKYNRLVTEVDELRNQLKRMRDPLE [CCH peptide (cMCU residues 288-316 plus C-terminal L and E)] | 5 |
